Laboratory results: patent publication US20230383295A1

Target: integrin receptors
Test: cell-based or functional assay

- HRP-filled vesicles in endothelial cells of Vtn^RGE mice compared to wildtype animals: 2 fold
Substance: vitronectin with RGD domain mutated to RGE (knock-in mouse line Vtn^RGE/RGE) (from UniProt P29788 20-478) (ligand)
